Assay results as given in patent publication US20150219635A1 (UCB, published 2015).

Experiments:
[1] = biological target: T1, Fcε3-4 (sub-fragment of IgE-Fc lacking the Cε2 domains) (human, UniProt P01854-1 209-428, limits assumed); experiment: ITC, Fcε3-4 titrated into Fab, 1:1 binding model
T1 construct: domain: Fcε3-4 (Cε3-Cε4); Production and any glycosylation site mutations not described
Experimental: (§1) Experiments were carried out using a Microcal iTC200 calorimeter (GE Healthcare) at 20° C. in PBS buffer pH 7.4. Depending on the final ratio required, 25-30 μM of protein was used in the calorimeter cell and 10-20 fold higher concentrations were used in the syringe. The number and volume of injections were varied as appropriate. Heats of dilution were subtracted from the data before analysis. […] Analyses were carried out using MicroCal Origin, using a 1:1 binding model when IgE-Fc or Fcε3-4 was titrated into Fab, or a sequential 1:1 binding model when Fab was titrated into IgE-Fc or Fcε3-4.
(§2) One way to establish experimentally that IgE-Fc adopts an […] as it flips between two bent conformations, is to determine the number of Fab binding sites that are available for binding: if rigidly and exclusively bent, only one site will initially be accessible, but if it can flip, then two sites are accessible. We therefore studied the interaction between Fab and IgE-Fc by isothermal titration calorimetry (ITC) and compared with the binding to Fcε3-4 which, lacking the Cε2 domains, always has two accessible sites.

[2] = biological target: T1, Fcε3-4 (sub-fragment of IgE-Fc lacking …); experiment: stopped-flow tryptophan fluorescence, Fcε3-4 in excess over Fab (1:1 complex)
Experimental: (§3) Experiments were carried out using a Chirascan Plus (Applied Photophysics Ltd) with a stopped-flow attachment at 20° C. in PBS buffer pH 7.4 and with pseudo-first order protein concentrations varied as required. Fluorescence was excited at 280 nm (1 nm slit width) and emitted fluorescence above 305 nm detected with a long-band pass. 6-10 runs were averaged for each experiment. Data were collected and analyzed using supplied software according to the manufacturer's instructions. Experimental transients were fitted either to single-exponential (Eq.1; [IgE-Fc] or [Fcε3-4]>[Fab] and only Fab¹ binding observable) or double-exponential (Eq.2; [Fab]>[IgE-Fc] or [Fcε3-4] and binding of both Fab¹ and Fab² observable) equations: […]
(§4) where F is the observed fluorescence, ΔFₙ is the fluorescence amplitude change for the nth transient, kobsn is the pseudo-first order rate constant for the nth step and Fₑ is the end-point fluorescence. The bimolecular association rate constants for Fab¹ (k₊₁) and Fab² (k₊₂) binding were determined by fitting the linear concentration dependences of kobs1 and kobs2 to Eq. 3: […]

[3] = biological target: T1, Fcε3-4 (sub-fragment of IgE-Fc lacking …); experiment: stopped-flow tryptophan fluorescence, Fab in excess over Fcε3-4, two-step binding; column kon2
Experimental: as §3, §4

[4] = biological target: T1, Fcε3-4 (sub-fragment of IgE-Fc lacking …); experiment: stopped-flow tryptophan fluorescence, Fab in excess over Fcε3-4, two-step binding; column kon
Experimental: as §3, §4

[5] = biological target: T1, Fcε3-4 (sub-fragment of IgE-Fc lacking …); experiment: ITC, Fab titrated into Fcε3-4, sequential binding model; second Fab
Experimental: as §1, §2

[6] = biological target: T1, Fcε3-4 (sub-fragment of IgE-Fc lacking …); experiment: ITC, Fab titrated into Fcε3-4, sequential binding model; first Fab
Experimental: as §1, §2

[7] = biological target: T1, Fcε3-4 (sub-fragment of IgE-Fc lacking …); experiment: stopped-flow tryptophan fluorescence, Fab in excess over Fcε3-4, two-step binding; column koff
Experimental: as §3, §4

T1 sequence (P01854 other isoform, or with tags, fused parts or gaps limits assumed): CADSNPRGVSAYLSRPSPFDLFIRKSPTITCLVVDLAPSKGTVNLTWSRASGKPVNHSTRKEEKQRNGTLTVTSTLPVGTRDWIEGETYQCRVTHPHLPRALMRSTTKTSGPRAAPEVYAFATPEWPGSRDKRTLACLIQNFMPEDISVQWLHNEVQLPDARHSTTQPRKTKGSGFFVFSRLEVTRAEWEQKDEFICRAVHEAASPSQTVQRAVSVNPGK

B1: Fab7 (anti-human IgE Fab, human IgG1 Fab format) (Fab, V domains shown)
VH: QVQLQQSGPGLVKPSQTLSLTCGISGDSVSSNSAAWNWLRQSPSRGLEWLGRTYYRSKWYNDYAVSMKSRITINPDTSRNQFSLQLNSVTPEDTAVYYCARDGEISYDYYYYGMDVWGRGTLVTVSS
VL: QSVLTQPPSASGTPGQRVTISCSGSSSNIGNNGVNWYQQVPGKPPKLLIYYDDLLPSGVSDRFSGSKSGTSASLAISGLQSEDEADYYCEAWDDSLDGVVFGGGTKLTVLG
notes: Expressed transiently in CHO cells; also called anti-IgE Fab; Fab^1
Kd [1]: 0.09 µM | kon [2]: 1e+06 M⁻¹ s⁻¹ | kon [3]: 370000 M⁻¹ s⁻¹ | kon [4]: 1e+06 M⁻¹ s⁻¹ | Kd [5]: 0.98 µM | Kd [6]: 0.034 µM | koff [7]: 0.95 s⁻¹
